Data as given in US20160200782A1.
Values belong to the substance of their own block, whether it stands above or below them.

Tests used:
Assay in all cases: cell-based or functional assay
[1] = molecular target: PKA(h) (human)
[2] = molecular target: IKKα(h) (human) (UniProt O15111)
[3] = molecular target: CK1δ(h) (human) (UniProt P48730)
[4] = molecular target: SAPK2b(h) (human) (UniProt Q15759)
[5] = molecular target: EphB1(h) (human) (UniProt P54762)
[6] = molecular target: PKCµ(h) (human) (UniProt Q15139)
[7] = molecular target: CDK1/cyclinB(h) (human) (UniProt P06493)
[8] = molecular target: SGK3(h) (human) (UniProt Q96BR1)
[9] = molecular target: cSRC(h) (human) (UniProt P12931)
[10] = molecular target: EphA5(h) (human) (UniProt P54756)
[11] = molecular target: CaMKIδ(h) (human) (UniProt Q8IU85)
CaMKIδ(h) (human), sequence (Q8IU85 whole entry, stated change not applied): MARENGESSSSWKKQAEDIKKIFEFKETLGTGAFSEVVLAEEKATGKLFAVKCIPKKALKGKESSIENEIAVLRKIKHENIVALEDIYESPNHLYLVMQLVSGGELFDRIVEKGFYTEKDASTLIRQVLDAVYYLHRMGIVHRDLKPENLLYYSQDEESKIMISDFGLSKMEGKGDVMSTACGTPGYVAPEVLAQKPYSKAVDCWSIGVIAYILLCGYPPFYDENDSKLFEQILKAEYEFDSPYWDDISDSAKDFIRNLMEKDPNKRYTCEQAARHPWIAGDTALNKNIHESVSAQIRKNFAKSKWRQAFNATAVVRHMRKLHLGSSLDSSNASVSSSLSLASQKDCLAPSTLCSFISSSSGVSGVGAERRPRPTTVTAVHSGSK

[12] = molecular target: JNK2α2(h) (human) (UniProt P45984)
[13] = molecular target: JAK2(h) (human) (UniProt O60674)
[14] = molecular target: Pyk2(h) (human) (UniProt Q14289)
[15] = molecular target: RIPK2(h) (human) (UniProt O43353)
[16] = molecular target: Met(Y1248H)(h) (human) (UniProt P08581)
[17] = molecular target: PDGFRα(V561D)(h) (human) (UniProt P16234)
[18] = molecular target: IR(h) (human) (UniProt P06213)
IR(h) (human), sequence (P06213 1005-1310 limits assumed): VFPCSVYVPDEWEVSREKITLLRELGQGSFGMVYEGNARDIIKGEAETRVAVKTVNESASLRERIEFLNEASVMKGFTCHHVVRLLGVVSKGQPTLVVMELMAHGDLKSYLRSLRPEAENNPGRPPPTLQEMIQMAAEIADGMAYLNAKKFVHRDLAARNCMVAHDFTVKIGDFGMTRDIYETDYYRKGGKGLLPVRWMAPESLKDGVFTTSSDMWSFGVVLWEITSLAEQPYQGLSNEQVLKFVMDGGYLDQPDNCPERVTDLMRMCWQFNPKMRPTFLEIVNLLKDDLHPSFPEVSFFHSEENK

[19] = molecular target: PAK2(h) (human) (UniProt Q13177)
[20] = molecular target: MRCKα(h) (human) (UniProt Q5VT25)
[21] = molecular target: PDGFRα(D842V)(h) (human) (UniProt P16234)
[22] = molecular target: CDK5/p25(h) (human) (UniProt Q00535)
[23] = molecular target: Hck(h) activated (human) (UniProt P08631)
[24] = molecular target: IRAK1(h) (human) (UniProt P51617)
IRAK1(h) (human), sequence (P51617 194-712 limits assumed): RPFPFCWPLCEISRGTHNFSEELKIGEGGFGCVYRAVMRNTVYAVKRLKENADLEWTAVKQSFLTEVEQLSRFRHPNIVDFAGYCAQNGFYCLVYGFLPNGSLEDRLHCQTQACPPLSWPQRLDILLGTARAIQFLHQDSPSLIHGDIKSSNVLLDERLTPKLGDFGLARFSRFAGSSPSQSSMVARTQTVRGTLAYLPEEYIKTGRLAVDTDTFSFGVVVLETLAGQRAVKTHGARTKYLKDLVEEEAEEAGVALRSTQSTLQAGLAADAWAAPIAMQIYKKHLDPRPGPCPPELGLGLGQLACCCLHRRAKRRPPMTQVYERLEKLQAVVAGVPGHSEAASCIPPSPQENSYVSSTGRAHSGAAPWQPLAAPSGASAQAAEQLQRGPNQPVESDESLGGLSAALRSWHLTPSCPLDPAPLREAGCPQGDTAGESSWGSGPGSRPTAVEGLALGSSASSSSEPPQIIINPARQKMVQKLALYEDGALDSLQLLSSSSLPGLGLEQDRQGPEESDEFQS

[25] = molecular target: DCAMKL2(h) (human) (UniProt Q8N568)
DCAMKL2(h) (human), sequence (Q8N568 372-766 limits assumed): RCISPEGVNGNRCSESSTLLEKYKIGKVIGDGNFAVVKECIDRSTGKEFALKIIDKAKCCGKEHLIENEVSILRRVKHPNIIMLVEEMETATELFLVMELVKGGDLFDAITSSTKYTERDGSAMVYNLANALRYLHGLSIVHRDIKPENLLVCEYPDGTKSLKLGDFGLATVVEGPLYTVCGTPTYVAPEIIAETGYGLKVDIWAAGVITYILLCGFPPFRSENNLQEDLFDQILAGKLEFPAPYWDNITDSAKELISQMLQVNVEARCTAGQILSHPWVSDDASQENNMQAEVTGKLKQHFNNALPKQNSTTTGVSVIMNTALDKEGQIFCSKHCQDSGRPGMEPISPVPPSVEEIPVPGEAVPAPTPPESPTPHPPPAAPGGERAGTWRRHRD

[26] = molecular target: TBK1(h) (human) (UniProt Q9UHD2)
[27] = molecular target: PKG1α(h) (human) (UniProt Q13976)
PKG1α(h) (human), sequence (Q13976 whole entry): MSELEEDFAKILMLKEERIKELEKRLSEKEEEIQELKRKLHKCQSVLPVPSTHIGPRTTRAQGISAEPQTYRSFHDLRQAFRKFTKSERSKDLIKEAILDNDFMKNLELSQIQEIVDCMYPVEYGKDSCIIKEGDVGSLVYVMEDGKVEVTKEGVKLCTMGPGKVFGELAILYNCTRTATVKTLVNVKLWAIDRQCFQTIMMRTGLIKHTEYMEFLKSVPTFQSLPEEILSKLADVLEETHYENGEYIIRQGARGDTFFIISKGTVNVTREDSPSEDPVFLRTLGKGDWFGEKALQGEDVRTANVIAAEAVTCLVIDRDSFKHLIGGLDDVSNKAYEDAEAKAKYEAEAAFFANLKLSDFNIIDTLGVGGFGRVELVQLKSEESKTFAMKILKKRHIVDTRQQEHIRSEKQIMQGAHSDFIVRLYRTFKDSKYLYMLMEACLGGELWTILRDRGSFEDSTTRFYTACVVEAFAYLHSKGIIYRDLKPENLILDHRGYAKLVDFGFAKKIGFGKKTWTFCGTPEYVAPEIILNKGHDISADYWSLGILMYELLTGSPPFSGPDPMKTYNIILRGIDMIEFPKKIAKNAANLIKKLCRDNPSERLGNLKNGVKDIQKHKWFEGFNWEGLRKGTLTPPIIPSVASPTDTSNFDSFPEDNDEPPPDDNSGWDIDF

[28] = molecular target: LKB1(h) (human) (UniProt Q15831)
[29] = molecular target: JAK3(h) (human) (UniProt P52333)
JAK3(h) (human), sequence (P52333 781-1124 limits assumed): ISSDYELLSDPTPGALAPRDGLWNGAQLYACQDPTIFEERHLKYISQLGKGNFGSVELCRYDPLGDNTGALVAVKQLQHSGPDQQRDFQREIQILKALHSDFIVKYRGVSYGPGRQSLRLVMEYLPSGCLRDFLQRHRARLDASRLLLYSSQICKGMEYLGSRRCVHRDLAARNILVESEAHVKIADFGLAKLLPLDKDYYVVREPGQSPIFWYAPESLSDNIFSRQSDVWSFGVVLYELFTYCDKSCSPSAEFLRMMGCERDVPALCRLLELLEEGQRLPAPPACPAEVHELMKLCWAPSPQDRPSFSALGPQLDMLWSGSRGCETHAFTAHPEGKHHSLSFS

[30] = molecular target: EphB3(h) (human) (UniProt P54753)
[31] = molecular target: Ab1(Y253F)(h) (human) (UniProt P00519)
[32] = molecular target: WNK2(h) (human) (UniProt Q9Y3S1)
[33] = molecular target: SGK2(h) (human) (UniProt Q9HBY8)
[34] = molecular target: BRK(h) (human) (UniProt Q13882)
[35] = molecular target: CDK2/cyclinE(h) (human) (UniProt P24941)
[36] = molecular target: Fyn(h) (human) (UniProt P06241)
Fyn(h) (human), sequence (P06241 whole entry): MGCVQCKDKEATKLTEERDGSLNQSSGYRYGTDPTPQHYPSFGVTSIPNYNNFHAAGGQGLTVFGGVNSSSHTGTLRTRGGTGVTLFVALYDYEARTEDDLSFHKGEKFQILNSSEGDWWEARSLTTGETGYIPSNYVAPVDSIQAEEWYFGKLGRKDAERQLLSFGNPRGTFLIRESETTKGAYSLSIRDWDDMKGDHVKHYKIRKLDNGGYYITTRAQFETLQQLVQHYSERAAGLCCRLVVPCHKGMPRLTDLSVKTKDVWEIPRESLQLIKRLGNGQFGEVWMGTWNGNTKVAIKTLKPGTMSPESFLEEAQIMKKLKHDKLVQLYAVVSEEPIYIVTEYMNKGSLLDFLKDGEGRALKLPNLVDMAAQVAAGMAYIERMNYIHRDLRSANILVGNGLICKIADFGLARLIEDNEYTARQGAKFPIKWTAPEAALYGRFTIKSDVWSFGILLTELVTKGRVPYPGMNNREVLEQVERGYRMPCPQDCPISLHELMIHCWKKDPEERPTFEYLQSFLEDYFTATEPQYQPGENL

[37] = molecular target: PKCη(h) (human) (UniProt P24723)
[38] = molecular target: NEK3(h) (human) (UniProt P51956)
[39] = molecular target: Plk3(h) (human) (UniProt Q9H4B4)
[40] = molecular target: CDK9/cyclin T1(h) (human) (UniProt P50750)
[41] = molecular target: LOK(h) (human) (UniProt O94804)
[42] = molecular target: STK33(h) (human) (UniProt Q9BYT3)
STK33(h) (human), sequence (Q9BYT3 whole entry): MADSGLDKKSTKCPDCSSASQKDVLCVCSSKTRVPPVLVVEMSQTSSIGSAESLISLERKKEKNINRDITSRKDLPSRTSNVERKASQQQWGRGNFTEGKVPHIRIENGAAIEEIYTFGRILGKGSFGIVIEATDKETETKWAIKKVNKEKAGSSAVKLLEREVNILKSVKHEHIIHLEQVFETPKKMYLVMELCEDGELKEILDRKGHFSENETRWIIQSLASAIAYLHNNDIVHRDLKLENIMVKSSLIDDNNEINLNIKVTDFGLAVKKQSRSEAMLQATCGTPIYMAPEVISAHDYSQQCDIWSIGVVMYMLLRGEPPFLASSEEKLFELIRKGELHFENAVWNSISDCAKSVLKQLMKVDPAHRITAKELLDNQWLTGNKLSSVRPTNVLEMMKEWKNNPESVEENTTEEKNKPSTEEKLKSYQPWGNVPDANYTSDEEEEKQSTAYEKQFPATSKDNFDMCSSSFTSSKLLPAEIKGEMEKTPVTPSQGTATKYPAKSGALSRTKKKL

[43] = molecular target: Ros(h) (human) (UniProt P08922)
[44] = molecular target: Flt3(D835Y)(h) (human) (UniProt P36888)
Flt3(D835Y)(h) (human), sequence (P36888 564-993 D835Y limits assumed): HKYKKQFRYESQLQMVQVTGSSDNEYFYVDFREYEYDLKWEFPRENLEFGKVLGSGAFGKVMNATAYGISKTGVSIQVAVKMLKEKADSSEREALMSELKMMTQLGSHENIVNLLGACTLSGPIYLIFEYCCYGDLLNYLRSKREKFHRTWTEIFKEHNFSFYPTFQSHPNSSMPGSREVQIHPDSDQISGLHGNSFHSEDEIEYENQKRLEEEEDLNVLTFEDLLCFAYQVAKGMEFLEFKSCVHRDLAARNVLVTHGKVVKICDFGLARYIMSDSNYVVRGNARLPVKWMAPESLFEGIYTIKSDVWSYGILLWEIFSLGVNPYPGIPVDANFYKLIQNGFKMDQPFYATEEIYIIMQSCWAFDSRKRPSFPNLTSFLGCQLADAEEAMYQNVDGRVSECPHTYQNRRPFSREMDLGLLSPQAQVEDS

[45] = molecular target: EphB2(h) (human) (UniProt P29323)
[46] = molecular target: PKCε(h) (human) (UniProt Q02156)
[47] = molecular target: BrSK1(h) (human) (UniProt Q8TDC3)
[48] = molecular target: BTK(R28H)(h) (human) (UniProt Q06187)
BTK(R28H)(h) (human), sequence (Q06187 whole entry R28H): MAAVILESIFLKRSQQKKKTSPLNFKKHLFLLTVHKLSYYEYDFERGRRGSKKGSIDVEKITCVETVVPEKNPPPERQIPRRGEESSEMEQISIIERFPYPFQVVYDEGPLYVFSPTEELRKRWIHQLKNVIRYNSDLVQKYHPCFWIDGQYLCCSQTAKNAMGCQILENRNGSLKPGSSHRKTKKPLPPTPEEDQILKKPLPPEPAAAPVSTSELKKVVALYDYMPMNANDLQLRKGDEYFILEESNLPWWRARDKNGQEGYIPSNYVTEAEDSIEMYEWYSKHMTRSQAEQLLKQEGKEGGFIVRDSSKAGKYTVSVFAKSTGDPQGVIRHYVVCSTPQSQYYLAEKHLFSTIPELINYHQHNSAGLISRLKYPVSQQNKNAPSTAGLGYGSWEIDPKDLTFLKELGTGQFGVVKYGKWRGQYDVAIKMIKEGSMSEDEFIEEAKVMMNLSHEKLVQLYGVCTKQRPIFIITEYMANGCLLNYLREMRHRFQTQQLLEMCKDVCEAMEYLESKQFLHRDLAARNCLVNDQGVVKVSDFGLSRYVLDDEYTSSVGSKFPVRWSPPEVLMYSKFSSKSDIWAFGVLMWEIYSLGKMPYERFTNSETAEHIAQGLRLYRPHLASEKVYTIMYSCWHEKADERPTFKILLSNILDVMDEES

[49] = molecular target: Lck(h) activated (human) (UniProt P06239)
[50] = molecular target: HIPK3(h) (human) (UniProt Q9H422)
[51] = molecular target: BTK(h) (human) (UniProt Q06187)
BTK(h) (human), sequence (Q06187 whole entry): as the sequence (Q06187 whole entry R28H) above, with H28R counted along it

[52] = molecular target: Fer(h) (human) (UniProt P16591)
[53] = molecular target: DMPK(h) (human) (UniProt Q09013)
[54] = molecular target: HIPK2(h) (human) (UniProt Q9H2X6)
[55] = molecular target: IRAK4(h) (human) (UniProt Q9NWZ3)
[56] = molecular target: CLK3(h) (human) (UniProt P49761)

Substance: MMI-0100 (peptide)
% activity [1]: 138%
% activity [2]: 108%
% activity [3]: 115%
% activity [4]: 99%
% activity [5]: 99%
% activity [6]: 79%
% activity [7]: 96%
% activity [8]: 95%
% activity [9]: 70%
% activity [10]: 110%
% activity [11]: 59%
% activity [12]: 114%
% activity [13]: 89%
% activity [14]: 113%
% activity [15]: 92%
% activity [16]: 88%
% activity [17]: 58%
% activity [18]: 112%
% activity [19]: 71%
% activity [20]: 98%
% activity [21]: 103%
% activity [22]: 114%
% activity [23]: 58%
% activity [24]: 97%
% activity [25]: 146%
% activity [26]: 106%
% activity [27]: 82%
% activity [28]: 111%
% activity [29]: 150%
% activity [30]: 109%
% activity [31]: 104%
% activity [32]: 95%
% activity [33]: 103%
% activity [34]: 70%
% activity [35]: 106%
% activity [36]: 71%
% activity [37]: 105%
% activity [38]: 100%
% activity [39]: 107%
% activity [40]: 228%
% activity [41]: 37%
% activity [42]: 99%
% activity [43]: 107%
% activity [44]: 120%
% activity [45]: 68%
% activity [46]: 102%
% activity [47]: 100%
% activity [48]: 91%
% activity [49]: 106%
% activity [50]: 105%
% activity [51]: 112%
% activity [52]: 117%
% activity [53]: 60%
% activity [54]: 98%
% activity [55]: 100%
% activity [56]: 108%

Substance: MMI-0200 (peptide)
% activity [1]: 110%
% activity [2]: 104%
% activity [3]: 92%
% activity [4]: 95%
% activity [5]: 95%
% activity [6]: 73%
% activity [7]: 115%
% activity [8]: 58%
% activity [9]: 32%
% activity [10]: 123%
% activity [11]: 47%
% activity [12]: 109%
% activity [13]: 131%
% activity [14]: 127%
% activity [15]: 98%
% activity [16]: 153%
% activity [17]: 106%
% activity [18]: 90%
% activity [19]: 69%
% activity [20]: 103%
% activity [21]: 107%
% activity [22]: 97%
% activity [23]: 100%
% activity [24]: 101%
% activity [25]: 131%
% activity [26]: 98%
% activity [27]: 70%
% activity [28]: 99%
% activity [29]: 117%
% activity [30]: 128%
% activity [31]: 102%
% activity [32]: 94%
% activity [33]: 119%
% activity [34]: 127%
% activity [35]: 112%
% activity [36]: 75%
% activity [37]: 101%
% activity [38]: 100%
% activity [39]: 107%
% activity [40]: 103%
% activity [41]: 67%
% activity [42]: 98%
% activity [43]: 86%
% activity [44]: 115%
% activity [45]: 128%
% activity [46]: 98%
% activity [47]: 93%
% activity [48]: 104%
% activity [49]: 90%
% activity [50]: 105%
% activity [51]: 100%
% activity [52]: 101%
% activity [53]: 66%
% activity [54]: 102%
% activity [55]: 110%
% activity [56]: 76%

% activity [1]: 118%
% activity [2]: 50%
% activity [3]: 78%
% activity [4]: 42%
% activity [5]: 37%
% activity [6]: 10%
% activity [7]: 57%
% activity [8]: -3%
% activity [9]: 30%
% activity [10]: 42%
% activity [11]: 0%
% activity [12]: 81%
% activity [13]: 49%
% activity [14]: 46%
% activity [15]: 30%
% activity [16]: 126%
% activity [17]: 146%
% activity [18]: 95%
% activity [19]: 44%
% activity [20]: 5%
% activity [21]: 170%
% activity [22]: 66%
% activity [23]: 67%
% activity [24]: 5%
% activity [25]: 56%
% activity [26]: 16%
% activity [27]: 25%
% activity [28]: 51%
% activity [29]: 95%
% activity [30]: 79%
% activity [31]: 29%
% activity [32]: 8%
% activity [33]: -1%
% activity [34]: 41%
% activity [35]: 19%
% activity [36]: 83%
% activity [37]: 45%
% activity [38]: 20%
% activity [39]: 122%
% activity [40]: 6%
% activity [41]: 7%
% activity [42]: 16%
% activity [43]: 150%
% activity [44]: 65%
% activity [45]: 70%
% activity [46]: 23%
% activity [47]: 72%
% activity [48]: 10%
% activity [49]: 76%
% activity [50]: 85%
% activity [51]: 18%
% activity [52]: 196%
% activity [53]: 12%
% activity [54]: 38%
% activity [55]: 3%
% activity [56]: 76%
Substance: MMI-0500 (peptide)
